# Results as given in patent US20030163841A1 (YALE UNIVERSITY, published 2003).
# Columns and labels:
# [1] = molecular target: the molecule itself; experiment: chemical cross-linking (DSub or EGS) of in vitro translated protein, SDS-PAGE, fluorography
# Procedure: Protein immunoblot analysis was performed exactly as described previously (McNellis et al., 1994a). pAR-COP1 , a FLAG-tagged COP1 that has an additional peptide […] at the N-terminus (Matsui et al., 1995), was in vitro transcribed and translated using TNT coupled reticulocyte lysate system (Promega) and radiolabelled with [³⁵S]methionine (Amersham). For chemical cross-linking, 2 μl of translation mix (with radiolabelled proteins) was diluted to 18 μl with a reaction buffer (100 mM potassium phosphate [pH 7.7]; 100 mM NaCl; 0.1 mM ZnSO₄; 10% glycerol; 0.1% NonidetP-40; 4 mM DTT) and cross-linked with 2 μl of freshly diluted Dsub or EGS in dimethyl sulfoxide. For a negative control, 2 μl of dimethyl sulfoxode was added to the reaction. After 20 min incubation at room temperature, the reaction was quenched by addition of 2 μl of 1 M glycine (for Dsub) or 200 mM lysine (for EGS) and 22 μl of 2× Laemmli SDS-PAGE buffer. Samples were boiled for 5 min, separated by 6% SDS-PAGE, and fluorographed after treatment with Amplify (Amersham).
# To better understand the COP1 self-association, we performed a chemical cross-linking analysis of in-vitro translated COP1 protein in solution. A FLAG-COP1 epitope tagged protein was in-vitro translated and then cross-linked with either dimethylsuberimidate (DSub) or ethylene glycobis (succinimidylsuccinate) (EGS). […]
# [2] = molecular target: the molecule itself; experiment: gel filtration (Superdex-200) of seedling extracts, immunoblot of fractions
# Procedure: For gel filtration chromatography, 8-day-old light- or dark grown seedlings were homogenized with 2× gel filtration buffer containing 50 mM Tris-HCl (pH 7.5), 440 mM NaCl, 2 mM MgCl₂, 2 μM ZnSO₄, 0.5 mM PMSF and centrifuged for 5 min at 4° C. Total soluble protein was fractionated through a 25 ml Superdex-200 FPLC column (Pharmacia) with 1× gel filtration buffer at a flow rate of […]. All procedures were carried out at 4° C. and, for dark samples, under dim green safe light. Consecutive fractions of 0.5 ml each were collected after the void volume (7.5 ml), concentrated, and subjected to 10% SDS-PAGE followed by a protein immunoblot analysis. The molecular weight standards for size estimation of the native COP1 protein were as follows: blue dextran (void); thyroglobulin (669 kDa); ferritin (440 kDa); catalase (232 kDa); aldolase (158 kDa); BSA (67 kDa); ovalbumin (43 kDa); and ribonuclease A (13.7 kDa) (Sigma).
# To confirm the presence of COP1 dimers in vivo, a gel-filtration analysis was performed using protein extracts from light- or dark-grown Arabidopsis wild-type seedlings. […] However, the COP1 peak was very broad and contained a broad shoulder toward the larger molecular size fractions (FIG. 1B). Therefore it is possible that a portion of COP1 may present as homo-oligomers or in heterogeneous associations with other molecules in vivo. […]
# [3] = molecular target: the molecule itself; experiment: yeast two-hybrid, LacZ reporter
# From the text: (C) Delimitation of Cop1 self-association domain utilizing the yeast two-hybrid system. For baits (Bait), Cop1 domain fragments were fused with the LexA DNA binding domain (LexA). For preys (Prey), the COP1 domain fragments were fused with the synthetic transcription activation domain (AD). Numbers and names at the left indicate a pairwise combination of bait and prey constructs in each row. The graph at the right indicates the relative LacZ reporter activity in yeast cells corresponding to combinations of bait and prey constructs presented in each row. For each pairwise combination, at least 8 individual transformants were used to measure the LacZ activity. Error bars represent standard deviation. Combination 1 (LexA: N282) and 2 (N282:AD) serve as negative controls.
# pKS-RING and pKS-Coil are digested with EcoRI and XhoI, and rest of the COP1 domain cassettes in the pKSm vectors were digested with EcoRI. Fragments were then ligated into pEG202 or pJG4-5 to generate COP1 domains fused to the LexA DNA binding protein or the synthetic activation domain, respectively (Golemis et al., 1995). Generation of pEG-N282, pJG-N282, pJG-COP1, and pJG-ΔRING was described elsewhere (McNellis et al., 1996; Ang et al., 1998). To generate pJG-GUS-ΔRΔC, pRTL-GUS-ΔRΔC was cleaved with NcoI and XbaI and then ligated into NcoI/XbaI digested pKS-COP1. […]
protein,measurement,setting,value
"FLAG-COP1 epitope tagged protein (pAR-COP1), in vitro translated and [35S]methionine labelled (other, Arabidopsis, range 1-675; Monomer 78 kDa, cross-linked product about 160 kDa; A second, lower band may start at an internal methionine of COP1; also called FLAG-tagged COP1) DDADTKDDDDKMEEISTDPVVPAVKPDPRTSSVGEGANRHENDDGGSGGSEIGAPDLDKDLLCPICMQIIKDAFLTACGHSFCYMCIITHLRNKSDCPCCSQHLTNNQLYPNFLLDKLLKKTSARHVSKTASPLDQFREALQRGCDVSIKEVDNLLTLLAERKRKMEQEEAERNMQILLDFLHCLRKQKVDELNEVQTDLQYIKEDINAVERHRIDLYRARDRYSVKLRMLGDDPSTRNAWPHEKNQIGFNSNSLSIRGGNFVGNYQNKKVEGKAQGSSHGLPKKDALSGSDSQSLNQSTVSMARKKRIHAQFNDLQECYLQKRRQLADQPNSKQENDKSVVRREGYSNGLADFQSVLTTFTRYSRLRVIAEIRHGDIFHSANIVSSIEFDRDDELFATAGVSRCIKVFDFSSVVNEPADMQCPIVEMSTRSKLSCLSWNKHEKNHIASSDYEGIVTVWDVTTRQSLMEYEEHEKRAWSVDFSRTEPSMLVSGSDDCKVKVWCTRQEASVINIDMKANICCVKYNPGSSNYIAVGSADHHIHYYDLRNISQPLHVFSGHKKAVSYVKFLSNNELASASTDSTLRLWDVKDNLPVRTFRGHTNEKNFVGLTVNSEYLACGSETNEVYVYHKEITRPVTSHRFGSPDMDDAEEEAGSYFISAVCWKSDSPTMLTANSQGTIKVLVLAA",binding result,[1],binds
"endogenous Arabidopsis COP1 protein (extracts of wild-type seedlings) (other, UniProt P43254 1-675, looked up, range 1-675; Gel filtration peak at about 160 kDa is read as a dimer; The peak is broad, so oligomers, other partners and some monomer are not excluded; also called native COP1 protein) MEEISTDPVVPAVKPDPRTSSVGEGANRHENDDGGSGGSEIGAPDLDKDLLCPICMQIIKDAFLTACGHSFCYMCIITHLRNKSDCPCCSQHLTNNQLYPNFLLDKLLKKTSARHVSKTASPLDQFREALQRGCDVSIKEVDNLLTLLAERKRKMEQEEAERNMQILLDFLHCLRKQKVDELNEVQTDLQYIKEDINAVERHRIDLYRARDRYSVKLRMLGDDPSTRNAWPHEKNQIGFNSNSLSIRGGNFVGNYQNKKVEGKAQGSSHGLPKKDALSGSDSQSLNQSTVSMARKKRIHAQFNDLQECYLQKRRQLADQPNSKQENDKSVVRREGYSNGLADFQSVLTTFTRYSRLRVIAEIRHGDIFHSANIVSSIEFDRDDELFATAGVSRCIKVFDFSSVVNEPADMQCPIVEMSTRSKLSCLSWNKHEKNHIASSDYEGIVTVWDVTTRQSLMEYEEHEKRAWSVDFSRTEPSMLVSGSDDCKVKVWCTRQEASVINIDMKANICCVKYNPGSSNYIAVGSADHHIHYYDLRNISQPLHVFSGHKKAVSYVKFLSNNELASASTDSTLRLWDVKDNLPVRTFRGHTNEKNFVGLTVNSEYLACGSETNEVYVYHKEITRPVTSHRFGSPDMDDAEEEAGSYFISAVCWKSDSPTMLTANSQGTIKVLVLAA",binding result,[2],binds
"Coil domain of COP1 (pKS-Coil cassette) (other, The cassette used in yeast starts at aa104 (L104M); Fused to LexA or AD in yeast; also called coiled-coil domain) MDKLLKKTSARHVSKTASPLDQFREALQRGCDVSIKEVDNLLTLLAERKRKMEQEEAERNMQILLDFLHCLRKQKVDELNEVQTDLQYIKEDINAVERHRIDLYRARD",binding result,[3],binds
